# In patent US20230167174A1:
# T1: hTREM2 IgSF-hTREM1 stalk-hFc (human) (UniProt Q9NZC2)
# T1 sequence (looked up): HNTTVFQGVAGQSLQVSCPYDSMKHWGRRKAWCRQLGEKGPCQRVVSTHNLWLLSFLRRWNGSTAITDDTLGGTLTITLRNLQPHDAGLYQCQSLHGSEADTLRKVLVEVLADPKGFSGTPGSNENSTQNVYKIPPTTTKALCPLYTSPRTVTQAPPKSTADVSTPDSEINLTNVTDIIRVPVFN
# T2: hTREM2 ECD (19-174)-hFc (human) (UniProt Q9NZC2)
# T2 sequence (chain, biotinylated where printed -bio): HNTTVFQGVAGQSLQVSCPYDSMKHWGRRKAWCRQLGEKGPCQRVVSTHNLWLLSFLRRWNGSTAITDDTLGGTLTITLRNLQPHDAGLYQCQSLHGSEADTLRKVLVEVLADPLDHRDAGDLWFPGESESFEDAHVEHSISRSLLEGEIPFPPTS
# T3: human TREM2 endogenously expressed (hM2A macrophages, THP1-B5 cells, iPS derived microglia) (human) (UniProt Q9NZC2)
# T3 sequence (looked up): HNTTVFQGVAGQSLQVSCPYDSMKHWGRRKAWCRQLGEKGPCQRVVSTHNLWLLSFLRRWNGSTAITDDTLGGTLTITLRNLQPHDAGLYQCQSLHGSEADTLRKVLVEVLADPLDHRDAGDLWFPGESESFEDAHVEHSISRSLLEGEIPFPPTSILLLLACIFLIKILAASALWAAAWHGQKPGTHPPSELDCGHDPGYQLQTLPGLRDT
# T4: human TREM2 on CHO-hDAP12-hTREM2 cells (human) (UniProt Q9NZC2)
# T4 sequence: T3 sequence (looked up)
# B1: MOR044746 (antibody, from a related filing, V domains shown)
# VH: QVQLQQSGPGLVKPSQTLSLTCAISGDSVSSSSAAWNWIRQSPSRGLEWLGHIGYRSKWYNEYAVSVKSRITINPDTSKNQFSLQLNSVTPEDTAVYYCARGMYGSVPYKEGYYFDIWGQGTLVTVSS
# VL: DIQMTQSPSSLSASVGDRVTITCRASQGISSDLNWYQQKPGKAPKLLIYAASNLQSGVPSRFSGSGSGTDFTLTISSLQPEDFATYYCQQYTDESMTFGQGTKVEIK
# Experiments:
# [1] = molecular target: cyTREM2 ECD (19-174)-hFc (cynomolgus); assay: recombinant protein binding
# [2] = molecular target: T1, hTREM2 IgSF-hTREM1 stalk-hFc (human); assay: recombinant protein binding
# [3] = molecular target: T2, hTREM2 ECD (19-174)-hFc (human); assay: recombinant protein binding
# [4] = molecular target: T3, human TREM2 endogenously expressed (hM2A macrophages, THP1-B5 cells, iPS derived microglia) (human); assay: FACS, hM2A, median of 4 donors
# [5] = molecular target: T3, human TREM2 endogenously expressed (hM2A macrophages, THP1-B5 cells, iPS derived microglia) (human); assay: FACS, hM2A, donor 4
# [6] = molecular target: cynomolgus TREM2 on CHO-hDAP12-cyTREM2 cells (cynomolgus); assay: FACS, CHO-cyTREM2
# [7] = molecular target: T3, human TREM2 endogenously expressed (hM2A macrophages, THP1-B5 cells, iPS derived microglia) (human); assay: FACS, hM2A
# [8] = molecular target: T3, human TREM2 endogenously expressed (hM2A macrophages, THP1-B5 cells, iPS derived microglia) (human); assay: FACS, hM2A, donor 2
# [9] = molecular target: T4, human TREM2 on CHO-hDAP12-hTREM2 cells (human); assay: cell-based or functional assay
# [10] = molecular target: T3, human TREM2 endogenously expressed (hM2A macrophages, THP1-B5 cells, iPS derived microglia) (human); assay: cell-based or functional assay
# [11] = molecular target: T3, human TREM2 endogenously expressed (hM2A macrophages, THP1-B5 cells, iPS derived microglia) (human); assay: FACS, hM2A, donor 1
# [12] = molecular target: cyTREM2 ECD (19-174)-APP-Avi (cynomolgus); assay: SPR, label free kinetics
# [13] = molecular target: T2, hTREM2 ECD (19-174)-hFc (human); assay: SPR, label free kinetics
# [14] = molecular target: cyTREM2 ECD (19-174)-APP-Avi (cynomolgus); assay: SET
# [15] = molecular target: T2, hTREM2 ECD (19-174)-hFc (human); assay: SET
# [16] = molecular target: T3, human TREM2 endogenously expressed (hM2A macrophages, THP1-B5 cells, iPS derived microglia) (human); assay: FACS, hM2A, donor 3
# [17] = molecular target: T2, hTREM2 ECD (19-174)-hFc (human); assay: SET screening
# [18] = molecular target: T4, human TREM2 on CHO-hDAP12-hTREM2 cells (human); assay: FACS, CHO-hTREM2
# Chain of cynomolgus TREM2 on CHO-hDAP12-cyTREM2 cells (cynomolgus) (chain, as listed by the source): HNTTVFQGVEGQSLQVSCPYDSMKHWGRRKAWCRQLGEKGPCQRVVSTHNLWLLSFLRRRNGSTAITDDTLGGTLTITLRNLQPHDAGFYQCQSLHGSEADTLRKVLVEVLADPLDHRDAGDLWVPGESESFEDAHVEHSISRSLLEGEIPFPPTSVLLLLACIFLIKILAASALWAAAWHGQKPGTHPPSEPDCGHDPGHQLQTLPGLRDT
binder,measurement,setting,value
B1,S/BG,[1],> 5
same,S/BG,[2],> 20
same,S/BG,[3],> 5
same,EC50,[4],0.59 nM
same,EC50,[5],0.64 nM
same,EC50,[6],0.65 nM
same,EC50,[7],< 2 nM
same,EC50,[8],0.54 nM
same,Internalization compared to parental after 6 h,[9],0.7 fold
same,Internalization; fold over background after 6 h,[9],33.3 fold
same,"Fold TREM2 cell surface increase compared to isotype (hM2A, 100 nM)",[10],5.1 fold
same,TREM2 activation (fold in RGA),[10],1.3 fold
same,"lowest active concentration, phagocytosis in hM2A",[10],1 nM
same,EC50,[11],0.73 nM
same,Kd,[12],0.004 nM
same,Kd,[13],0.003 nM
same,Kd,[14],0.004 nM
same,Kd,[15],0.003 nM
same,EC50,[16],0.54 nM
same,Kd,[17],< 0.6 nM
same,EC50,[18],0.16 nM
